Source: IntAct's records for PubMed 18571510

B1: Regulatory protein NPR1 (Arabidopsis thaliana (Mouse-ear cress)), P93002 (parent)
chain: MDTTIDGFADSYEISSTSFVATDNTDSSIVYLAAEQVLTGPDVSALQLLSNSFESVFDSPDDFYSDAKLVLSDGREVSFHRCVLSARSSFFKSALAAAKKEKDSNNTAAVKLELKEIAKDYEVGFDSVVTVLAYVYSSRVRPPPKGVSECADENCCHVACRPAVDFMLEVLYLAFIFKIPELITLYQRHLLDVVDKVVIEDTLVILKLANICGKACMKLLDRCKEIIVKSNVDMVSLEKSLPEELVKEIIDRRKELGLEVPKVKKHVSNVHKALDSDDIELVKLLLKEDHTNLDDACALHFAVAYCNVKTATDLLKLDLADVNHRNPRGYTVLHVAAMRKEPQLILSLLEKGASASEATLEGRTALMIAKQATMAVECNNIPEQCKHSLKGRLCVEILEQEDKREQIPRDVPPSFAVAADELKMTLLDLENRVALAQRLFPTEAQAAMEIAEMKGTCEFIVTSLEPDRLTGTKRTSPGVKIAPFRILEEHQSRLKALSKTVELGKRFFPRCSAVLDQIMNCEDLTQLACGEDDTAEKRLQKKQRYMEIQETLKKAFSEDNLELGNSSLTDSTSSTSKSTGGKRSNRKLSHRRR
partner: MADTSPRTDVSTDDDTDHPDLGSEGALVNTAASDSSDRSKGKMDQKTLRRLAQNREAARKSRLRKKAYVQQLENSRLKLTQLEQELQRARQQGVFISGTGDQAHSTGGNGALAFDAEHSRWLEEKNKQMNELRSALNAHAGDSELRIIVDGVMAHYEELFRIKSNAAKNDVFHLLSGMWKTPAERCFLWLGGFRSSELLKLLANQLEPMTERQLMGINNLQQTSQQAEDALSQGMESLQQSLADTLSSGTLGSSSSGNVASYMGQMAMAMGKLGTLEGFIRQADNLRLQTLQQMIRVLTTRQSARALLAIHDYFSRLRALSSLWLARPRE

Variants of: B1
Conditions: with tga2_arath TGA2, P43273

Row | effect of a mutation on the interaction | Variant
1 | disrupting interaction | C150Y
